Values quoted from earlier work, collected in US20020168685A1, “Covalent chemical inducers of protein dimerization and their uses in high throughput binding screens” (priority 2001, published 2002).

Conditions: substrate nitrocefin

B1: E. cloacae P99 wt: wild-type E. cloacae P99 cephase (protein, UniProt P05364 21-381, looked up)
Beta-lactamase: TPVSEKQLAEVVANTITPLMKAQSVPGMAVAVIYQGKPHYYTFGKADIAANKPVTPQTLFELGSISKTFTGVLGGDAIARGEISLDDAVTRYWPQLTGKQWQGIRMLDLATYTAGGLPLQVPDEVTDNASLLRFYQNWQPQWKPGTTRLYANASIGLFGALAVKPSGMPYEQAMTTRVLKPLKLDHTWINVPKAEEAHYAWGYRDGKAVRVSPGMLDAQAYGVKTNVQDMANWVMANMAPENVADASLKQGIALAQSRYWRIGSMYQGLGWEMLNWPVEANTVVEGSDSKVALAPLPVAEVNPPAPPVKASWVHKTGSTGGFGSYVAFIPEKQIGIVMLANTSYPNPARVEAAYHILEALQ
What does the source list for B1?
% WT (percentage of wild-type kcat/Km as calculated in that experiment): 100%; Km: 25 ± 1 µM; kcat: 780 ± 30 s⁻¹
